Columns and labels:
[1] = target: recombinant human SIRPα variant 1 protein (human) (UniProt P78324); assay: SPR Biacore 8K, antibody captured, antigen analyte
[2] = target: recombinant human SIRPα variant 1 protein (human) (UniProt P78324); assay: ELISA on coated recombinant human SIRPα v1, OD450
[3] = target: SIRPα-His protein (UniProt P78324); assay: competition ELISA: SIRPα-His binding to coated CD47-Fc in the presence of the antibody, OD450
[4] = target: SIRPα-His protein (UniProt P78324); assay: competition ELISA, SIRPα-His binding to coated CD47-Fc
[5] = target: SIRP-α expressed on cells (UniProt P78324); assay: FACS binding test on SIRP-a cell line, Geom.Mean; unit from the axis log(nm)
[6] = target: SIRPα (blocking assay of Example 11) (UniProt P78324); assay: blocking of the CD47/SIRPα interaction, ratio 665 nm/615 nm against antibody concentration

Chain of recombinant human SIRPα variant 1 protein (human) (P78324 31-370, change not shown): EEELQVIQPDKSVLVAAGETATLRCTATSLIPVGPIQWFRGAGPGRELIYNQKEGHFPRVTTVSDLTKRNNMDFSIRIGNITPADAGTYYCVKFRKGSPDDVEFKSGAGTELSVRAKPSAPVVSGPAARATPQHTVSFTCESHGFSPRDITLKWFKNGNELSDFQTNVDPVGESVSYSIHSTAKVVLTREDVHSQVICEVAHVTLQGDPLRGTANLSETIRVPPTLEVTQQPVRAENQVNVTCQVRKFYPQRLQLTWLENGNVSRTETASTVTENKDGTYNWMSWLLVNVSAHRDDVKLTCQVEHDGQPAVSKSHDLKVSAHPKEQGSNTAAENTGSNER

B1: 248G3F6 (antibody, V domains shown)
VH: EVQLQQSGAELVKPGASVKLSCTASGFNFEDTYMHWVKQRPDQGLEWIGRIDPADGDTKYNPKFQDKATITVDTSSNTAYLQLSSLTSEDTAVYYCVRGNYVNWGQGTTLTVSS
VL: QIVLIQSPAIMSASPGERVTLTCRASSSVSSSYLYWYQQKPGSSPKLWIYSTSNLASGVPARFSGSGSGTSYSLTISSMEAEDAASYFCHQWYSYPRTFGGGTKLEIK
[1]
  Kd: 2 nM
  koff: 0.000374 s⁻¹
  kon: 187000 M⁻¹ s⁻¹
[2]
  EC50: 0.0182 µg/mL
[3]
  IC50: 0.356 µg/mL

B2: HSP210-02-Chi (antibody, V domains shown)
VH: EVQLQQSGAELVKPGASVKLSCTASGFNFEDTYMHWVKQRPDQGLEWIGRIDPADGDTKYNPKFQDKATITVDTSSNTAYLQLSSLTSEDTAVYYCVRGNYVNWGQGTTLTVSS
VL: QIVLIQSPAIMSASPGERVTLTCRASSSVSSSYLYWYQQKPGSSPKLWIYSTSNLASGVPARFSGSGSGTSYSLTISSMEAEDAASYFCHQWYSYPRTFGGGTKLEIK
[4]
  IC50: 0.14 nM

B3: HSP210-02-hz52 (antibody, V domains shown)
VH: QVQLVQSGAEVKKPGASVKVSCKASGFNFEDTYMHWVRQAPGQGLEWMGRIDPADADTKYNPKFQDRVTITVDTSTNTAYMELSSLRSEDTAVYYCVRGNYVNWGQGTTVTVSS
VL: EIVLTQSPGTLSLSPGERATLSCRASSSVSSSYLYWYQQKPGQAPRLLIYSTSNLASGIPDRFSGSGSGTDYTLTISRLEPEDAAVYFCHQWYSYPRTFGGGTKVEIK
[1]
  Kd: 0.423 nM
  koff: 0.000298 s⁻¹
  kon: 704000 M⁻¹ s⁻¹
[4]
  IC50: 0.11 nM
[5]
  EC50: 0.54 nM
[6]
  IC50 (read off the curve): 0.1 nM

B4: HSP210-02-hz22 (antibody, V domains shown)
VH: QVQLVQSGAEVKKPGASVKVSCKASGFNFEDTYMHWVRQAPGQGLEWMGRIDPADGDTKYNPKFQDRVTMTVDTSTNTAYMELSSLRSEDTAVYYCVRGNYVNWGQGTTVTVSS
VL: EIVLTQSPGTLSLSPGERATLSCRASSSVSSSYLYWYQQKPGQAPRLLIYSTSNLASGIPDRFSGSGSGTDYTLTISRLEPEDAAVYFCHQWYSYPRTFGGGTKVEIK
[4]
  IC50: 0.092 nM

B5: HSP210-02-hz42 (antibody, V domains shown)
VH: QVQLVQSGAEVKKPGASVKVSCKASGFNFEDTYMHWVRQAPGQGLEWMGRIDPAEGDTKYNPKFQDRVTITVDTSTNTAYMELSSLRSEDTAVYYCVRGNYVNWGQGTTVTVSS
VL: EIVLTQSPGTLSLSPGERATLSCRASSSVSSSYLYWYQQKPGQAPRLLIYSTSNLASGIPDRFSGSGSGTDYTLTISRLEPEDAAVYFCHQWYSYPRTFGGGTKVEIK
[4]
  IC50: 0.12 nM

B6: HSP210-02-hz32 (antibody, V domains shown)
VH: QVQLVQSGAEVKKPGASVKVSCKASGFNFEDTYMHWVRQAPGQGLEWMGRIDPADGDTKYNPKFQDRVTITVDTSTNTAYMELSSLRSEDTAVYYCVRGNYVNWGQGTTVTVSS
VL: EIVLTQSPGTLSLSPGERATLSCRASSSVSSSYLYWYQQKPGQAPRLLIYSTSNLASGIPDRFSGSGSGTDYTLTISRLEPEDAAVYFCHQWYSYPRTFGGGTKVEIK
[4]
  IC50: 0.11 nM

B7: HSP210-01-hz22 (antibody, V domains shown)
VH: QVQLQESGPGLVKPSETLSLTCTFSGFSLNTYDIGMGWIRQPPGKGLEWIGHIWWNDREYYNSALQSRVTISKDTSKTQVSLKLSSVTAADTAVYYCVRIDYFGSGQAWFTYWGQGTLVTVSS
VL: EIVLTQSPGTLSLSPGERATLSCSSSSTISSTYLHWYQQKPGQAPRLLISGTSNLASGIPDRFSGSGSGTDYTLTISRLEPEDVAVYYCQQGSRIPFTFGQGTKLEIK
[4]
  IC50: 0.21 nM

B8: HSP210-01-hz62 (antibody, V domains shown)
VH: QVQLQESGPGLVKPSETLSLTCTFSGFSLNTYDIGMGWIRQPPGKGLEWIAHIWWNDREYYNPALQSRVTISKDTSKTQVSLKLSSVTAADTAVYYCVRIDYFGSGQAWFTYWGQGTLVTVSS
VL: EIVLTQSPGTLSLSPGERATLSCSSSSTISSTYLHWYQQKPGQAPRLLISGTSNLASGIPDRFSGSGSGTDYTLTISRLEPEDVAVYYCQQGSRIPFTFGQGTKLEIK
[4]
  IC50: 0.16 nM

B9: HSP210-01-hz32 (antibody, V domains shown)
VH: QVQLQESGPGLVKPSETLSLTCTFSGFSLNTYDIGMGWIRQPPGKGLEWIAHIWWNDREYYNSALQSRVTISKDTSKTQVSLKLSSVTAADTAVYYCVRIDYFGSGQAWFTYWGQGTLVTVSS
VL: EIVLTQSPGTLSLSPGERATLSCSSSSTISSTYLHWYQQKPGQAPRLLISGTSNLASGIPDRFSGSGSGTDYTLTISRLEPEDVAVYYCQQGSRIPFTFGQGTKLEIK
[4]
  IC50: 0.16 nM

B10: HSP210-01-hz61 (antibody, V domains shown)
VH: QVQLQESGPGLVKPSETLSLTCTFSGFSLNTYDIGMGWIRQPPGKGLEWIAHIWWNDREYYNPALQSRVTISKDTSKTQVSLKLSSVTAADTAVYYCVRIDYFGSGQAWFTYWGQGTLVTVSS
VL: EIVLTQSPGTLSLSPGERATLSCSSSSTISSTYLHWYQQKPGQAPRLLIYGTSNLASGIPDRFSGSGSGTDFTLTISRLEPEDFAVYYCQQGSRIPFTFGQGTKLEIK
[4]
  IC50: 0.21 nM

B11: HSP210-01-hz52 (antibody, V domains shown)
VH: QVQLQESGPGLVKPSETLSLTCTFSGFSLNTYDIGMGWIRQPPGKGLEWIAHIWWNDREYYSSALQSRVTISKDTSKTQVSLKLSSVTAADTAVYYCVRIDYFGSGQAWFTYWGQGTLVTVSS
VL: EIVLTQSPGTLSLSPGERATLSCSSSSTISSTYLHWYQQKPGQAPRLLISGTSNLASGIPDRFSGSGSGTDYTLTISRLEPEDVAVYYCQQGSRIPFTFGQGTKLEIK
[4]
  IC50: 0.23 nM

B12: HSP210-03-hz51 (antibody, V domains shown)
VH: QVQLVQSGAEVKKPGSSVKVSCKASGYTFTSNYIHWVRQAPGQGLEWMGWIYPGDADTNYNQKFNGRVTLTADKSTSTAYMELSSLRSEDTAVYYCAINYGGIWFAYWGQGTLVTVSS
VL: DIQMTQSPSSLSASVGDRVTITCQASQDIGNKLIWYQQKPGKAPKLLIYYVTNLPGGVPSRFSGSGSGTDFTLTISSLQPEDFATYYCLQYKQNPLTFGQGTKLEIK
[1]
  Kd: 0.999 nM
  koff: 0.000804 s⁻¹
  kon: 805000 M⁻¹ s⁻¹
[5]
  EC50: 0.417 nM
[6]
  IC50 (read off the curve): 0.1 nM

B13: HSP210-03-hz22 (antibody, V domains shown)
VH: QVQLVQSGAEVKKPGSSVKVSCKASGYTFTSNYIHWVRQAPGQGLEWMGWIYPGDGDTNYNQKFNGRVTITADKSTSTAYMELSSLRSEDTAVYYCAINYGGIWFAYWGQGTLVTVSS
VL: DIQMTQSPSSLSASVGDRVTITCQASQDIGNKLIWFQQKPGKAPKLLIHYVTNLPGGVPSRFSGSRSGSDYTLTISSLQPEDFATYYCLQYKQNPLTFGQGTKLEIK
[4]
  IC50: 0.16 nM

B14: HSP210-03-hz32 (antibody, V domains shown)
VH: QVQLVQSGAEVKKPGSSVKVSCKASGYTFTSNYIHWVRQAPGQGLEWMGWIYPGDGDTNYNQKFNGRVTLTADKSTSTAYMELSSLRSEDTAVYYCAINYGGIWFAYWGQGTLVTVSS
VL: DIQMTQSPSSLSASVGDRVTITCQASQDIGNKLIWFQQKPGKAPKLLIHYVTNLPGGVPSRFSGSRSGSDYTLTISSLQPEDFATYYCLQYKQNPLTFGQGTKLEIK
[4]
  IC50: 0.145 nM

B15: HSP210-03-hz52 (antibody, V domains shown)
VH: QVQLVQSGAEVKKPGSSVKVSCKASGYTFTSNYIHWVRQAPGQGLEWMGWIYPGDADTNYNQKFNGRVTLTADKSTSTAYMELSSLRSEDTAVYYCAINYGGIWFAYWGQGTLVTVSS
VL: DIQMTQSPSSLSASVGDRVTITCQASQDIGNKLIWFQQKPGKAPKLLIHYVTNLPGGVPSRFSGSRSGSDYTLTISSLQPEDFATYYCLQYKQNPLTFGQGTKLEIK
[4]
  IC50: 0.13 nM

B16: HSP210-03-hz42 (antibody, V domains shown)
VH: QVQLVQSGAEVKKPGSSVKVSCKASGYTFTSNYIHWVRQAPGQGLEWMGWIYPGEGDTNYNQKFNGRVTLTADKSTSTAYMELSSLRSEDTAVYYCAINYGGIWFAYWGQGTLVTVSS
VL: DIQMTQSPSSLSASVGDRVTITCQASQDIGNKLIWFQQKPGKAPKLLIHYVTNLPGGVPSRFSGSRSGSDYTLTISSLQPEDFATYYCLQYKQNPLTFGQGTKLEIK
[4]
  IC50: 0.13 nM

B17: 300A6A6 (antibody, V domains shown)
VH: QVQLQQSGTELVKPGSSVKISCKASGYTFTSNYIHWIRQQPGNGLEWIGWIYPGDGDTNYNQKFNGKATLTADKSSSTAYMQLSSLTSEDYAVYFCAINYGGIWFAYWGQGTLVTVSS
VL: DIQMTQSPSSMSASLGDRVTITCQASQDIGNKLIWFQQKPGKSPRLMIHYVTNLPGGVPLRFSGSRSGSDYSLTISSLESEDMADYYCLQYKQNPLTFGSGTKLEIK
[1]
  Kd: 1.13 nM
  koff: 0.000148 s⁻¹
  kon: 131000 M⁻¹ s⁻¹
[2]
  EC50: 0.0121 µg/mL
[3]
  IC50: 0.383 µg/mL

B18: HSP210-03-Chi (antibody, V domains shown)
VH: QVQLQQSGTELVKPGSSVKISCKASGYTFTSNYIHWIRQQPGNGLEWIGWIYPGDGDTNYNQKFNGKATLTADKSSSTAYMQLSSLTSEDYAVYFCAINYGGIWFAYWGQGTLVTVSS
VL: DIQMTQSPSSMSASLGDRVTITCQASQDIGNKLIWFQQKPGKSPRLMIHYVTNLPGGVPLRFSGSRSGSDYSLTISSLESEDMADYYCLQYKQNPLTFGSGTKLEIK
[4]
  IC50: 0.14 nM
